First the molecules themselves.
B4: Sec1-V5-His6 (natural protein)
chain: MSDLIELQRNYLIGVLNQIETKNNLKFLIIDKTVETILSYLFLTPQELLNNVTSVDLIDSPTRKGQSSIEAIYILEPTKYNINCIDADFMVRPPKYRRCHIRFLPGLTNPIFQFFQSKRYIAQNLESFKPIELGFFVKESQFFETLQMEHSLQVFFNNNCKALIPTNVRKIVGSLVSLCVITGEYPIVRYSVSNPVEEEDARNGNAVVNANSLTRSIANAFQIAIDTYARNNPDFPPQNTERPRSILIITDRTLDPFAPILHDFSYQAMAYDLVANVDTQKDIYHYSAENEAGEQEEKVSKLVDLYDPDWIDLKHQHIMDANEYIQGRIKELIAKNPLLVDRSNVKNTTDLLSVVAHLKDFDEERRRLILHKTLVDECLGENAERKLADISAIEQNLSGFGMDFSGEKIKHIIDDLLPALAMKEPTILDKLRYIIAYALFRGGIIELDFIKLLNFIGVTHEHENFQQYLKIFRNYDLIDFKLIKDKPKDKPFQKEWFHDTLVNDPNIYHTSRFVPAVGNILSKVIANPLLLSEQYFPYLKDKPIELLNEEEFQAGLANTSANSSSSLRNPRHKAAWTTKSSNIKKNIPRQRFFYYVIGGISIPEIKAAYDQSNLKNRDIFIGSDEILTPTKFLDEVERLQNPREFFKFKEDQRQQVNPPDFLLREMKPVAQPVSHVHLKSQDNSPKSGTSSPKAAGSLKSEPPEKEKKRSKFSRFLKRKSHHDK

Experiment [1] deals with B4. Nature of the experiment: pull-down.
Experiment [2] deals with T1, Recombinant Sec6 (1–805) (yeast, UniProt P32844 1-805).
T1 sequence: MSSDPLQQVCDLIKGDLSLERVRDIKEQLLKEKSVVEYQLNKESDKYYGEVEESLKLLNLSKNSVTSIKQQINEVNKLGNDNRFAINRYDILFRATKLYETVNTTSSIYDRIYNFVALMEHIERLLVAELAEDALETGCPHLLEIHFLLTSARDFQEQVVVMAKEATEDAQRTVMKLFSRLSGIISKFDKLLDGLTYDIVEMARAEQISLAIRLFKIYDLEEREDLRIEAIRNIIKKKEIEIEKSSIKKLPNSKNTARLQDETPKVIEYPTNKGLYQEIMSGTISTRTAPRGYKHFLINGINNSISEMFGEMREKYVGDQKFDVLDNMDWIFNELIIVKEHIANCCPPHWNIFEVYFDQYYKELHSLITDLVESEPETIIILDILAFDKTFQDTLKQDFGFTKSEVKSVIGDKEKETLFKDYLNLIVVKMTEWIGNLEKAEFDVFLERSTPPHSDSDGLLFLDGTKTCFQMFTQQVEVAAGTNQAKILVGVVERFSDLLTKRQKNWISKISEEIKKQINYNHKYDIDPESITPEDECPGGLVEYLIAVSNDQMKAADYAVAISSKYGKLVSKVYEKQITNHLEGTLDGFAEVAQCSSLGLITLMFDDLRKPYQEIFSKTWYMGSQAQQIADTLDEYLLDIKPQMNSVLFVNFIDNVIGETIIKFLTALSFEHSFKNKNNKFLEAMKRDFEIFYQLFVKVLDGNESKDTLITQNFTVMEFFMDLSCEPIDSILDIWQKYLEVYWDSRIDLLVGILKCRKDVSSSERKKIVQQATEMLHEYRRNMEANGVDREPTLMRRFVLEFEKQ
Put plainly: […].

Experiment [3] deals with T1, Recombinant Sec6 (1–805). Nature of the experiment: SEC. For orientation: In gel filtration, larger molecules generally elute earlier.
Experiment [4] deals with T1, Recombinant Sec6 (1–805). Nature of the experiment: pull-down.

B1: Sso1, cytoplasmic region (domain or fragment)
chain: MSYNNPYQLETPFEESYELDEGSSAIGAEGHDFVGFMNKISQINRDLDKYDHTINQVDSLHKRLLTEVNEEQASHLRHSLDNFVAQATDLQFKLKNEIKSAQRDGIHDTNKQAQAENSRQRFLKLIQDYRIVDSNYKEENKEQAKRQYMIIQPEATEDEVEAAISDVGGQQIFSQALLNANRRGEAKTALAEVQARHQELLKLEKSMAELTQLFNDMEELVIEQQENVDVIDKNVEDAQLDVEQGVGHTDKAVKSARKARKNKIR
In general, Kd refers to a measure of binding affinity in units of concentration. In experiment [1], B1 had a Kd above 10000 nM.

B2: MBP-Sec9CT (domain or fragment)
chain: ARQQQEEDEAVDEIKQEIKFTKQSSVASTRNTLKMAQDAERAGMNTLGMLGHQSEQLNNVEGNLDLMKVQNKVADEKVAELKKLNRSILAVHVSNPFNSKRRRREREEQLKNRKIEEKLMREQTSQQLSQSTQRIEGAMNANNNISEVRERYQRKNVLEKAKRYQFENDEEDDEMELEIDRNLDQIQQVSNRLKKMALTTGKELDSQQKRLNNIEESTDDLDINLHMNTNRLAGIR
With B2, the binding result in experiment [2] is recorded as “binds”.

B3: Sec9CT (416–651) (domain or fragment)
chain: ARQQQEEDEAVDEIKQEIKFTKQSSVASTRNTLKMAQDAERAGMNTLGMLGHQSEQLNNVEGNLDLMKVQNKVADEKVAELKKLNRSILAVHVSNPFNSKRRRREREEQLKNRKIEEKLMREQTSQQLSQSTQRIEGAMNANNNISEVRERYQRKNVLEKAKRYQFENDEEDDEMELEIDRNLDQIQQVSNRLKKMALTTGKELDSQQKRLNNIEESTDDLDINLHMNTNRLAGIR
Consider B3, for which the binding result in experiment [3] is listed as “binds”.
For the molecule B4, the Kd in experiment [4] is around 1700 nM.

These data come from paper PMC3258177 (Molecular Biology of the Cell, 2012).
